Patent US20220127341A1 (HUDSON INSTITUTE OF MEDICAL RESEARCH, published 2022)

Assays:
[1] = target: T1, mouse KRT14 (Keratin, type I cytoskeletal 14) as expressed by murine ID8 ovarian cancer cells (Mus musculus (Mouse), UniProt Q61781 1-484); assay: flow cytometry of cardiac blood stained with anti-CD45 and mAb AN-17
T1 construct: whole, on cells; also called non-human protein
T1 sequence (looked up): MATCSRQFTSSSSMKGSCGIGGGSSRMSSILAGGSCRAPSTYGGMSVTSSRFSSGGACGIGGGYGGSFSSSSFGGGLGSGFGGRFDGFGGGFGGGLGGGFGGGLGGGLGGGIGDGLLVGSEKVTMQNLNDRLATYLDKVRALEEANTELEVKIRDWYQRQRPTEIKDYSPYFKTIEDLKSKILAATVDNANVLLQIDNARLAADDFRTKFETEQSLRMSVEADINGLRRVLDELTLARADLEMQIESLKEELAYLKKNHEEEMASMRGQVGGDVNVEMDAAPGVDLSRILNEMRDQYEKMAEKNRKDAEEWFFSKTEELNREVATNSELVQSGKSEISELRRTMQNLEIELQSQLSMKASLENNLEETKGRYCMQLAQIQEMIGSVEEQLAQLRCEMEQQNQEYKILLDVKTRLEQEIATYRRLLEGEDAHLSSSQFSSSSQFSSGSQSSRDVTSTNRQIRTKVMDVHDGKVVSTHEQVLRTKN
Experimental: Cardiac blood was taken from mice bearing 12-week old ID8 iRFP720+ epithelial ovarian tumours and stained using anti-CD45 and mAb AN-17. Circulating ID8 tumour cells were identified as KRT14+CD45− cells and confirmed by iRFP720+ status. iRFP720+ID8 cells spiked into blood was used as a positive control.
(§1) Flow cytometry was carried out according to standard protocols (PMID: 30602661), with data acquired using a BD LSRFortessa X-20 (BD Biosciences) and analysed using FlowJo software v10.5.0 (BD Biosciences). Samples assessed for KRT14+ cell populations included OVCAR3, CAOV4, ID8 mouse ovarian cancer cells, ascites-derived ovarian cancer cells derived from a clinical specimen (designated #3.1937-07) and cardiac blood from a mice bearing 12-week old epithelial ovarian tumours. For cell lines, 1×10⁶ cells per cell line were incubated with either mAb AN-17 (1:200 dilution) or a commercially available anti-KRT14 polyclonal antibody (Sigma SAB4501657; 1:50 dilution) as a positive control for 45 mins in non-immune serum at room temperature. The secondary antibodies, goat anti-mouse Alexa647 (mAb AN-17) or goat anti-rabbit IgG Alexa 488 (commercial Ab), were diluted 1:500 and incubated for 30 minutes. For blood samples. 2×10⁶ cells were incubated with an Alexa Fluor® 488-conjugated mAb AN-17 antibody for 45 minutes. […]

[2] = target: T2, human KRT14 (Keratin, type I cytoskeletal 14) as expressed by human cancer cells and tumour tissue (Homo sapiens (Human), UniProt P02533 1-472); assay: flow cytometry
T2 construct: whole, on cells; Probed on intact cells (surface-exposed N-terminal portion), on permeabilized cells and in FFPE tissue sections; also called K14; Keratin-14
T2 sequence (looked up): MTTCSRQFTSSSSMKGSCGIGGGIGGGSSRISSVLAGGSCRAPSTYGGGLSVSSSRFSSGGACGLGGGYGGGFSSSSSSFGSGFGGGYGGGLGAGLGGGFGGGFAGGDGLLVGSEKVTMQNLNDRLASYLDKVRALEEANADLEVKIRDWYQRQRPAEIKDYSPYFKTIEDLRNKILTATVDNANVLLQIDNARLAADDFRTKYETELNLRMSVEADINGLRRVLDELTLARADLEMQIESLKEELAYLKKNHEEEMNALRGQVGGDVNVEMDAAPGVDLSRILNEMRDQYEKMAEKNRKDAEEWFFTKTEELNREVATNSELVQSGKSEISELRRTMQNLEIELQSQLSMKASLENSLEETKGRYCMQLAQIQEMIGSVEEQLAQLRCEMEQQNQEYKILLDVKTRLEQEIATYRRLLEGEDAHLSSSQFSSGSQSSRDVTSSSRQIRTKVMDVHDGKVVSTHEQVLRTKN
Experimental: OVCAR3, CAOV4, ID8 and the patient-derived 3.1937-07 cell lines were analysed on a BD LSRFortessa X-20 (BD Biosciences) flow cytometer for KRT14+ cell populations, using mAb AN-17 or a commercially available polyclonal antibody to KRT14 (Sigma SAB4501657).
as §1

binding result [1]: binds | binding result [2]: binds
B1: monoclonal anti-KRT14 antibody AN-17 (antibody, V domains shown)
VH: QVQLKESGPGLVAPSQSLSITCTVSGFSLSRYSVHWVRQPPGKGLEWLGMIWGGGSTDYNSALKSRLSISKDNSKSQVFLKMNSLQTDDTAMYYCARKDYGYSYFDYWGQGTTLTVSS
VL: DVLMTQTPLSLPVSLGDQASISCRSSQSIVHSNGNTYLEWYLQKPGQSPKLLIYKVSNRFSGVPDRFSGSGSGTDFTLKISRVEAEDLGVYYCFQGSHVPFTFGSGTKLEIKR
notes: the isotype-matched control used is mouse IgG1 kappa; Some assays used it conjugated to Alexa Fluor 488 or Alexa-647; also called mAb AN-17; mAb AN17
